# Laboratory results published in publication PMC9001736 (2022).
# T1: ZZ domain of p300 (p300ZZ) (human)
# T1 chain: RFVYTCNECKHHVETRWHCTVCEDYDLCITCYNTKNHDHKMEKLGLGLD
# T2: REEE peptide (mimetic of the Nt-R cargo degradation signal)
# T2 peptide: REEE
# T3: ZZ domain of HERC2 (HERC2ZZ, aa 2702–2755 with additional tryptophan at the C-terminus) (human, UniProt O95714 2702-2755)
# T3 chain: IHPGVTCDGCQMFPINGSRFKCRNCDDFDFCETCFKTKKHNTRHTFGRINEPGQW
# B1: histone H3_(1–12) peptide (aa 1–12 of H3) (peptide)
# peptide: ARTKQTARKSTG
# modifications: zinc-bound (2 Zn2+ expected for a ZZ finger); limits from the UniProt ZZ-type feature, construct limits not given
# B2: p62 ZZ (protein)
# chain: not shown
# B3: histone H3_(1–12) peptide (aa 1–12 of H3) (peptide)
# peptide: ARTKQTARKSTG
# Key:
# [1] = biological target: T1, ZZ domain of p300 (p300ZZ); test: value cited from earlier reference
# [2] = biological target: T2, REEE peptide (mimetic of the Nt-R cargo …)
# [3] = biological target: T3, ZZ domain of HERC2 (HERC2ZZ, aa …); test: value cited from earlier reference
binder,measurement,setting,value
B1,Kd,[1],8.8 µM
B2,Kd,[2],1.9 µM
B3,Kd,[3],15 µM
